Molecular target: receptors in brush border membrane vesicles produced from Spodoptera frugiperda (fall armyworm, FAW)
Assay: competitive displacement of 0.5 nM ^125I Cry1Be (competitor) from FAW BBMV

Cry1Fa protein from Bacillus thuringiensis (from UniProt Q03746 28-605) (ligand)
concentration at which displacement of ^125I Cry1Be is effective: > 100 nM

From US20120311746A1
